Residue numbers refer to the chain shown, from its start. Numbers in names are those of the source.
B1: CE115HA000/GLS3000 T31I one-arm antibody (antibody, human IgG1, kappa, L234A L235A, N297A, name in Kabat numbering)
heavy: QVQLVESGGGVVQPGRSLRLSCAASGFTFSNAWMHWVRQAPGKGLEWVAQIKAKSNNYATYYAESVKGRFTISRDDSKNSLYLQMNSLKTEDTAVYYCRYVHYGAYYGVDAWGQGTTVTVSSASTKGPSVFPLAPSSKSTSGGTAALGCLVKDYFPEPVTVSWNSGALTSGVHTFPAVLQSSGLYSLSSVVTVPSSSLGTQTYICNVNHKPSNTKVDKKVEPKSCDKTHTCPPCPAPEAAGGPSVFLFPPKPKDTLMISRTPEVTCVVVDVSHEDPEVKFNWYVDGVEVHNAKTKPREEQYASTYRVVSVLTVLHQDWLNGKEYKCKVSNKALPAPIEKTISKAKGQPREPQVYTLPPSRCELTKNQVSLSCAVKGFYPSDIAVEWESNGQPENNYKTTPPVLDSDGSFFLVSKLTVDKSRWQQGNVFSCSVMHEALHNHYTQKSLSLSPDYKDDDDK
chain: EPKSSDKTHTCPPCPAPELLGGPSVFLFPPKPKDTLMISRTPEVTCVVVDVSHEDPEVKFNWYVDGVEVHNAKTKPREEQYNSTYRVVSVLTVLHQDWLNGKEYKCKVSNKALPAPIEKTISKAKGQPREPQVCTLPPSRDELTKNQVSLWCLVKGFYPSDIAVEWESNGQPENNYKTTPPVLDSDGSFFLYSKLTVDKSRWQQGNVFSCSVMHEALHNRYTQKSLSLSP
light: DIVMTQSPLSLPVTPGEPASISCRSSQSLVHSNRNIYLHWYQQKPGQAPRLLIYKVSNRFSGVPDRFSGSGSGTDFTLKISRVEAEDVGVYYCGQGTQVPYTFGQGTKLEIKRTVAAPSVFIFPPSDEQLKSGTASVVCLLNNFYPREAKVQWKVDNALQSGNSQESVTEQDSKDSTYSLSSTLTLSKADYEKHKVYACEVTHQGLSSPVTKSFNRGEC
notes: one-arm IgG1
B2: CE115HA000/GLS3000 T31K one-arm antibody (antibody, human IgG1, kappa, L234A L235A, N297A, name in Kabat numbering)
heavy: B1 heavy
chain: B1 chain
light: B1 light with I36K
notes: one-arm IgG1
B3: CE115HA000/GLS3000 T31N one-arm antibody (antibody, human IgG1, kappa, L234A L235A, N297A, name in Kabat numbering)
heavy: B1 heavy
chain: B1 chain
light: B1 light with I36N
notes: one-arm IgG1
B4: CE115HA000/GLS3000 T31P one-arm antibody (antibody, human IgG1, kappa, L234A L235A, N297A, name in Kabat numbering)
heavy: B1 heavy
chain: B1 chain
light: B1 light with I36P
notes: one-arm IgG1
B5: CE115HA000/GLS3000 T92A one-arm antibody (antibody, human IgG1, kappa, L234A L235A, N297A, name in Kabat numbering)
heavy: B1 heavy
chain: B1 chain
light: B1 light with I36T, T97A
notes: one-arm IgG1
B6: CE115HA000/GLS3000 T92D one-arm antibody (antibody, human IgG1, kappa, L234A L235A, N297A, name in Kabat numbering)
heavy: B1 heavy
chain: B1 chain
light: B1 light with I36T, T97D
notes: one-arm IgG1
B7: CE115HA000/GLS3000 T92E one-arm antibody (antibody, human IgG1, kappa, L234A L235A, N297A, name in Kabat numbering)
heavy: B1 heavy
chain: B1 chain
light: B1 light with I36T, T97E
notes: one-arm IgG1
B8: CE115HA000/GLS3000 T92I one-arm antibody (antibody, human IgG1, kappa, L234A L235A, N297A, name in Kabat numbering)
heavy: B1 heavy
chain: B1 chain
light: B1 light with I36T, T97I
notes: one-arm IgG1
B9: CE115HA000/GLS3000 T92L one-arm antibody (antibody, human IgG1, kappa, L234A L235A, N297A, name in Kabat numbering)
heavy: B1 heavy
chain: B1 chain
light: B1 light with I36T, T97L
notes: one-arm IgG1
B10: CE115HA000/GLS3000 V51D one-arm antibody (antibody, human IgG1, kappa, L234A L235A, N297A, name in Kabat numbering)
heavy: B1 heavy
chain: B1 chain
light: B1 light with I36T, V56D
notes: one-arm IgG1
B11: CE115HA000/GLS3000 V51E one-arm antibody (antibody, human IgG1, kappa, L234A L235A, N297A, name in Kabat numbering)
heavy: B1 heavy
chain: B1 chain
light: B1 light with I36T, V56E
notes: one-arm IgG1
B12: CE115HA000/GLS3000 V51G one-arm antibody (antibody, human IgG1, kappa, L234A L235A, N297A, name in Kabat numbering)
heavy: B1 heavy
chain: B1 chain
light: B1 light with I36T, V56G
notes: one-arm IgG1
B13: CE115HA000/GLS3000 V51I one-arm antibody (antibody, human IgG1, kappa, L234A L235A, N297A, name in Kabat numbering)
heavy: B1 heavy
chain: B1 chain
light: B1 light with I36T, V56I
notes: one-arm IgG1
B14: CE115HA000/GLS3000 V51P one-arm antibody (antibody, human IgG1, kappa, L234A L235A, N297A, name in Kabat numbering)
heavy: B1 heavy
chain: B1 chain
light: B1 light with I36T, V56P
notes: one-arm IgG1
B15: CE115HA000/GLS3000 V94A one-arm antibody (antibody, human IgG1, kappa, L234A L235A, N297A, name in Kabat numbering)
heavy: B1 heavy
chain: B1 chain
light: B1 light with I36T, V99A
notes: one-arm IgG1
B16: CE115HA000/GLS3000 V94D one-arm antibody (antibody, human IgG1, kappa, L234A L235A, N297A, name in Kabat numbering)
heavy: B1 heavy
chain: B1 chain
light: B1 light with I36T, V99D
notes: one-arm IgG1
B17: CE115HA000/GLS3000 V94E one-arm antibody (antibody, human IgG1, kappa, L234A L235A, N297A, name in Kabat numbering)
heavy: B1 heavy
chain: B1 chain
light: B1 light with I36T, V99E
notes: one-arm IgG1
B18: CE115HA000/GLS3000 V94F one-arm antibody (antibody, human IgG1, kappa, L234A L235A, N297A, name in Kabat numbering)
heavy: B1 heavy
chain: B1 chain
light: B1 light with I36T, V99F
notes: one-arm IgG1
B19: CE115HA000/GLS3000 V94G one-arm antibody (antibody, human IgG1, kappa, L234A L235A, N297A, name in Kabat numbering)
heavy: B1 heavy
chain: B1 chain
light: B1 light with I36T, V99G
notes: one-arm IgG1
B20: CE115HA000/GLS3000 V94H one-arm antibody (antibody, human IgG1, kappa, L234A L235A, N297A, name in Kabat numbering)
heavy: B1 heavy
chain: B1 chain
light: B1 light with I36T, V99H
notes: one-arm IgG1
B21: CE115HA000/GLS3000 V94I one-arm antibody (antibody, human IgG1, kappa, L234A L235A, N297A, name in Kabat numbering)
heavy: B1 heavy
chain: B1 chain
light: B1 light with I36T, V99I
notes: one-arm IgG1
B22: CE115HA000/GLS3000 V94K one-arm antibody (antibody, human IgG1, kappa, L234A L235A, N297A, name in Kabat numbering)
heavy: B1 heavy
chain: B1 chain
light: B1 light with I36T, V99K
notes: one-arm IgG1
B23: CE115HA000/GLS3000 V94L one-arm antibody (antibody, human IgG1, kappa, L234A L235A, N297A, name in Kabat numbering)
heavy: B1 heavy
chain: B1 chain
light: B1 light with I36T, V99L
notes: one-arm IgG1
B24: CE115HA000/GLS3000 V94M one-arm antibody (antibody, human IgG1, kappa, L234A L235A, N297A, name in Kabat numbering)
heavy: B1 heavy
chain: B1 chain
light: B1 light with I36T, V99M
notes: one-arm IgG1
B25: CE115HA000/GLS3000 V94N one-arm antibody (antibody, human IgG1, kappa, L234A L235A, N297A, name in Kabat numbering)
heavy: B1 heavy
chain: B1 chain
light: B1 light with I36T, V99N
notes: one-arm IgG1
B26: CE115HA000/GLS3000 Y32D one-arm antibody (antibody, human IgG1, kappa, L234A L235A, N297A, name in Kabat numbering)
heavy: B1 heavy
chain: B1 chain
light: B1 light with I36T, Y37D
notes: one-arm IgG1
B27: CE115HA000/GLS3000 Y32F one-arm antibody (antibody, human IgG1, kappa, L234A L235A, N297A, name in Kabat numbering)
heavy: B1 heavy
chain: B1 chain
light: B1 light with I36T, Y37F
notes: one-arm IgG1
B28: CE115HA000/GLS3000 Y32P one-arm antibody (antibody, human IgG1, kappa, L234A L235A, N297A, name in Kabat numbering)
heavy: B1 heavy
chain: B1 chain
light: B1 light with I36T, Y37P
notes: one-arm IgG1
B29: CE115HA000/GLS3000 Y96D one-arm antibody (antibody, human IgG1, kappa, L234A L235A, N297A, name in Kabat numbering)
heavy: B1 heavy
chain: B1 chain
light: B1 light with I36T, Y101D
notes: one-arm IgG1
B30: CE115HA000/GLS3000 Y96E one-arm antibody (antibody, human IgG1, kappa, L234A L235A, N297A, name in Kabat numbering)
heavy: B1 heavy
chain: B1 chain
light: B1 light with I36T, Y101E
notes: one-arm IgG1
B31: CE115HA000/GLS3000 Y96F one-arm antibody (antibody, human IgG1, kappa, L234A L235A, N297A, name in Kabat numbering)
heavy: B1 heavy
chain: B1 chain
light: B1 light with I36T, Y101F
notes: one-arm IgG1
B32: CE115HA000/GLS3000 Y96H one-arm antibody (antibody, human IgG1, kappa, L234A L235A, N297A, name in Kabat numbering)
heavy: B1 heavy
chain: B1 chain
light: B1 light with I36T, Y101H
notes: one-arm IgG1
B33: CE115HA000/GLS3000 Y96L one-arm antibody (antibody, human IgG1, kappa, L234A L235A, N297A, name in Kabat numbering)
heavy: B1 heavy
chain: B1 chain
light: B1 light with I36T, Y101L
notes: one-arm IgG1
B34: GLS3000 H27dA one-arm antibody (H chain CE115HA000) (antibody, human IgG1, kappa, L234A L235A, N297A, name in Kabat numbering)
heavy: B1 heavy
chain: B1 chain
light: B1 light with H31A, I36T
notes: one-arm antibody

biological target: T1, CD3 epsilon homodimer protein (UniProt P07766 23-126); assay: SPR (Biacore T200), CD3e homodimer on CM4 chip, antibody as analyte; KD ratio vs unaltered GLS3000;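 also: CD3 epsilon homodimer amine-coupled to the sensor surface, antibodies injected as analyte at 25 °C with HBS-EP+ running buffer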
T1 construct: also called CD3 (CD3 epsilon)
T1 sequence (P07766 23-126): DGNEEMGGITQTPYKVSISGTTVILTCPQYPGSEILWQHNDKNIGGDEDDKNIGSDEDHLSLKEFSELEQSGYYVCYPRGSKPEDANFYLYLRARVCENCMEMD

Q: Which “KD ratio to GLS3000” value does the source give for B1 here?
A: The value was 1.1 ratio.

Q: Which “KD ratio to GLS3000” value does the source give for B2 here?
A: Its value is 0.88 ratio.

Q: Which “KD ratio to GLS3000” value does the source give for B3 here?
A: Its value is 4.46 ratio.

Q: With B4 as the binder, how does the “KD ratio to GLS3000” value read?
A: The value was 10.8 ratio.

Q: How did the “KD ratio to GLS3000” value turn out when B5 was run?
A: Its value is 1.35 ratio.

Q: How did the “KD ratio to GLS3000” value turn out when B6 was run?
A: The value was 11.2 ratio.

Q: B7 was tested. Which “KD ratio to GLS3000” value did it give?
A: Its value is 19.6 ratio.

Q: How did the “KD ratio to GLS3000” value turn out when B8 was run?
A: Its value is 1.91 ratio.

Q: B9 was tested. Which “KD ratio to GLS3000” value did it give?
A: The value was 1.61 ratio.

Q: Which “KD ratio to GLS3000” value does the source give for B10 here?
A: Its value is 1.5 ratio.

Q: Which “KD ratio to GLS3000” value does the source give for B11 here?
A: The value was 0.88 ratio.

Q: How did the “KD ratio to GLS3000” value turn out when B12 was run?
A: The value was 0.83 ratio.

Q: With B13 as the binder, how does the “KD ratio to GLS3000” value read?
A: The value was 0.69 ratio.

Q: For B14, which “KD ratio to GLS3000” value is on record?
A: Its value is 6 ratio.

Q: For B15, which “KD ratio to GLS3000” value is on record?
A: Its value is 1.05 ratio.

Q: With B16 as the binder, how does the “KD ratio to GLS3000” value read?
A: The value was 1.05 ratio.

Q: Which “KD ratio to GLS3000” value does the source give for B17 here?
A: Its value is 1.18 ratio.

Q: How did the “KD ratio to GLS3000” value turn out when B18 was run?
A: The value was 1.75 ratio.

Q: B19 was tested. Which “KD ratio to GLS3000” value did it give?
A: Its value is 2.59 ratio.

Q: How did the “KD ratio to GLS3000” value turn out when B20 was run?
A: Its value is 1.16 ratio.

Q: With B21 as the binder, how does the “KD ratio to GLS3000” value read?
A: The value was 1.46 ratio.

Q: Which “KD ratio to GLS3000” value does the source give for B22 here?
A: Its value is 0.91 ratio.

Q: For B23, which “KD ratio to GLS3000” value is on record?
A: Its value is 3.06 ratio.

Q: For B24, which “KD ratio to GLS3000” value is on record?
A: The value was 2.74 ratio.

Q: How did the “KD ratio to GLS3000” value turn out when B25 was run?
A: Its value is 0.96 ratio.

Q: Which “KD ratio to GLS3000” value does the source give for B26 here?
A: The value was 25.9 ratio.

Q: For B27, which “KD ratio to GLS3000” value is on record?
A: The value was 4.51 ratio.

Q: B28 was tested. Which “KD ratio to GLS3000” value did it give?
A: The value was 62 ratio.

Q: Which “KD ratio to GLS3000” value does the source give for B29 here?
A: Its value is 40.9 ratio.

Q: Which “KD ratio to GLS3000” value does the source give for B30 here?
A: Its value is 46.8 ratio.

Q: For B31, which “KD ratio to GLS3000” value is on record?
A: The value was 0.86 ratio.

Q: With B32 as the binder, how does the “KD ratio to GLS3000” value read?
A: The value was 80.3 ratio.

Q: For B33, which “KD ratio to GLS3000” value is on record?
A: Its value is 1.84 ratio.

biological target: T2, CD3 epsilon homodimer protein (UniProt P07766 23-126); assay: SPR, CD3e homodimer on chip;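 also: surface plasmon resonance at 25 degrees C, antibodies flowed as analyte over CD3 epsilon homodimer amine-coupled to a CM4 chip, running buffer HBS-EP+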
T2 construct: also called CD3 (CD3 epsilon)
T2 sequence (P07766 23-126): as above

Q: With B34 as the binder, how does the “ratio of amounts bound (altered form / unaltered GLS3000 antibody)” value read?
A: The value was 0.48.

Reference: US20240270846A1 (published 2024)
